Test results published in PMC6082832, “Effects of polymorphic variation on the thermostability of heterogenous populations of CYP3A4 and CYP2C9 enzymes in solution” (Scientific Reports, 2018).

Biological target: the molecule itself
Assay: SEC; BioSep-SEC-S3000 column (5-700 kDa), room temperature, 0.5 ml/min, 100 mM potassium phosphate pH 7.4; 20 µl sample at ~2 mg/ml total protein; monitored at 410 nm; sizes estimated from the Bio-Rad gel filtration standard calibration curve

B1: CYP2C9 wild-type, N-terminally truncated, His-tagged recombinant protein (enzyme, human, UniProt P11712 29-490, looked up)
chain: LPPGPTPLPVIGNILQIGIKDISKSLTNLSKVYGPVFTLYFGLKPIVVLHGYEAVKEALIDLGEEFSGRGIFPLAERANRGFGIVFSNGKKWKEIRRFSLMTLRNFGMGKRSIEDRVQEEARCLVEELRKTKASPCDPTFILGCAPCNVICSIIFHKRFDYKDQQFLNLMEKLNENIKILSSPWIQICNNFSPIIDYFPGTHNKLLKNVAFMKSYILEKVKEHQESMDMNNPQDFIDCFLMKMEKEKHNQPSEFTIESLENTAVDLFGAGTETTSTTLRYALLLLLKHPEVTAKVQEEIERVIGRNRSPCMQDRSHMPYTDAVVHEVQRYIDLLPTSLPHAVTCDIKFRNYLIPKGTTILISLTSVLHDNKEFPNPEMFDPHHFLDEGGNFKKSKYFMPFSAGKRICVGEALAGMELFLFLTSILQNFNLKSLVDPKNLDTTPVVNGFASVPPFYQLCFIPV
modifications: biotin on the BCCP tag (50 µM biotin added to facilitate biotinylation)
notes: cytochrome P450 2C9, human; Vector pBJW102.2 (pQE-80L with BCCP and a glycine-serine linker 3' to the His-6 tag); also called CYP2C9 WT; source: E. coli DH5α, purified (Protino Ni-TED His-tag purification)
stoichiometry N: ~8 subunits
